Results from publication doi:10.1101/2021.02.02.429416.

How the values were obtained:
Aflibercept = assay: ELISA
KP-VR2 (human) [1] = assay: ELISA
KP-VR2 (human) [2] = assay: BLI

B1: Human PlGF-1 (ligand)
chain: LPAVPPQQWALSAGNGSSEVEVVPFQEVWGRSYCRALERLVDVVSEYPSEVEHMFSPSCVSLLRCTGCCGDENLHCVPVETANVTMQLLKIRSGDRPSYVELTFSQHVRCECRPLREKMKPERCGDAVPRR
B1 showed an EC50 (Aflibercept) of 30.5 nM, an EC50 (KP-VR2 (human) [1]) of 2.39 nM and a Kd (KP-VR2 (human) [2]) of 0.78 nM.
